Here are results for 73 sequences from the supplement of paper PMC10567573.

± gives the standard deviation.

The data set in a line: protein stability index of a GFP-peptide fusion (GPS, HEK-293T) (PSI 1-6); higher = more stable.
Setting [1] is: treatment: DMSO, c terminus: a fixed tail appended.
[2] abbreviates: treatment: MLN4924 1 uM, 8 h, c terminus: a fixed tail appended.
Setting [3] is: treatment: DMSO, c terminus: native.
Setting [4] is: treatment: MLN4924 1 uM, 8 h, c terminus: native.
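Also: 24-mer peptide tiles fused after GFP, lentivirally expressed, FACS-sorted into six equal bins by GFP/DsRed ratio, decoded by Illumina sequencing, PSI is the read-weighted mean bin number.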

For the sequence FDIQQGFDNPQVRFFLGDLCSRQD [NSDHL], the protein stability index reads like this: under setting [1], 2.94 ± 0.24; under setting [2], 2.86 ± 0.31. Take ASFYACRLDKHLYVIGGRNETGYL [KLHL14]: the protein stability index under setting [1] worked out at 2.7 ± 0.54 and the protein stability index under setting [2] came to 2.54 ± 0.95. VHETPAASKTVFFFFSSPGNNNGT [BTBD1]: the protein stability index under setting [1] stood at 2.37 ± 0.3 and the protein stability index under setting [2] is 2.15 ± 0.31. Turning to PQVRDWSHYFKIIEDLRAQIFANT [KRT18], the protein stability index by setting is: under setting [1], 2.52 ± 0.36; under setting [2], 2.64 ± 0.46.

SQSPRAAGPREGHSHSHHHHHRG [PBXIP1] came in with a protein stability index under setting [3] of 3.02 ± 0.69 and a protein stability index under setting [4] of 4.03 ± 0.49.

Regarding IATYRSLLEGQDAKMAGIGIREAS [KRT15], the protein stability index reads like this: under setting [1], 3.09 ± 0.23; under setting [2], 3.25 ± 0.1. Consider VYNANINLFCVLRLVVEFPATGGA [PKD2L1], for which the protein stability index runs as follows: under setting [1], 3.05 ± 0.41; under setting [2], 3.13 ± 0.71. Turning to ERKKVQIRSMDPSALASDRFNLIL [DCAF4], the protein stability index was 2.29 ± 0.16 under setting [1] and 2.5 ± 0.23 under setting [2]. On to RYIIFKRNTLNQPCSGSVSLQPRR [GMCL1], for which the protein stability index by setting is: under setting [1], 2.27 ± 0.22; under setting [2], 2.36 ± 0.43. For VGEIVGIITRHNLTYEFLQARLRQ [CLCN6], the protein stability index is, setting by setting: under setting [1], 2.73 ± 0.64; under setting [2], 2.67 ± 0.85.

For the sequence RRKRTYWNDSCGEDMEASDYELED [WEE1], the protein stability index was 4.37 ± 0.3 under setting [1] and 4.92 ± 0.27 under setting [2]. As to QESSFRSRKIAVEDENDLEELNNG [MIA2], the protein stability index was found to be 5.32 ± 0.92 under setting [1] and 5.48 ± 0.15 under setting [2]. For PRICQRNLMSLLMAVRPSLPESGL [FANCE], the protein stability index amounted to 2.4 ± 0.6 under setting [1] and 2.21 ± 0.27 under setting [2].

On to NLGRMIDWVPVESLLRPLNSLAAL [ZER1], for which the protein stability index was 1.72 ± 0.18 under setting [1] and 2.28 ± 0.66 under setting [2]. Consider ADPVLDLPLPPPPPEPLSQVSMWD [APBB1IP], for which the protein stability index by setting is: under setting [1], 3.46 ± 0.68; under setting [2], 3.94 ± 0.62. For the sequence HILKKYYGNGMRKSPEMPVILEVS [RTP4], the protein stability index stood at 1.99 ± 0.51 under setting [1] and 2.2 ± 0.37 under setting [2].

AARKKYNLLQDSSTSDSDLTCDSS [C18orf25] gave a protein stability index under setting [1] of 4.96 ± 0.21 and a protein stability index under setting [2] of 4.89 ± 0.23. On to AFSHKSMRDRHVNMHLNLRPFDCP [ZBTB22], for which the protein stability index reads like this: under setting [1], 2.4 ± 0.15; under setting [2], 2.47 ± 0.19. LNVRSEEQVFNAVMAWVKYSIQER [KLHL20]: the protein stability index is, setting by setting: under setting [1], 2.54 ± 0.77; under setting [2], 2.42 ± 0.23.

Turning to LKIDFGDSARADDARQLFVLAGAA [GNAI1], the protein stability index is 2.59 ± 0.37 under setting [1] and 2.68 ± 0.27 under setting [2]. As for FYTLSPNSHFSLNVKTLKDGKPFP [PCDHGC5], the protein stability index by setting is: under setting [1], 2.6 ± 0.21; under setting [2], 2.62 ± 0.24. KEATVPCTEILTEKKDTITNDSLS [MIA2] registered a protein stability index under setting [2] of 5.49 ± 0.15. In the case of TTGPNPFTTLTDRELEEYRREVER [ADD1], the protein stability index was 5.08 ± 0.18 under setting [1] and 5.16 ± 0.21 under setting [2]. LNHVKSMWYPEIKHFCPRTPVILV [RHOBTB1]: the protein stability index is, setting by setting: under setting [1], 3.16 ± 0.47; under setting [2], 3.1 ± 0.82.

On to HKRRRRKQKVSRIERSSSFSSITD [DVL3], for which the protein stability index runs as follows: under setting [1], 4.28 ± 0.096; under setting [2], 4.55 ± 0.092. Consider LLRDHIPRGKEELESLGGGKTPPG [MOG], for which the protein stability index stood at 4.89 ± 0.18 under setting [1] and 4.81 ± 0.37 under setting [2]. In the same order, the values of ELVLRKDCPKIVEPHGKMFNEQTW [ZSCAN9] are 2.86 ± 0.38 and 2.78 ± 0.3. In the same order, the values of EFYLLELMDCCLIVYHPYRPLLQY [CCNC] are 3.08 ± 1.3 and 2.98 ± 0.45. PSTLLPTPEEQGELEPLKGNFDWE [FOXJ1] displayed a protein stability index under setting [1] of 5.17 ± 0.068 and a protein stability index under setting [2] of 5.16 ± 0.29. As to ETRRLSIGLDNGTISEFILSEDYN [WDFY2], the protein stability index runs as follows: under setting [1], 3.84 ± 0.34; under setting [2], 4.03 ± 0.3. Turning to YHPRDQNKVLVCPMKSAPVMLTLS [RBBP5], the protein stability index is, setting by setting: under setting [1], 2.33 ± 0.66; under setting [2], 2.34 ± 0.3. Take SLAIFSEELDGLCFKGELPLRAVH [PLEKHN1]: the protein stability index is, setting by setting: under setting [1], 2.42 ± 0.13; under setting [2], 2.46 ± 0.43. In the case of HLTSVTSESEQEFLYKTAGGLIYW [CD207], the protein stability index is 2.33 ± 0.28 under setting [1] and 2.63 ± 0.33 under setting [2]. In the case of QGEPLGYRQDDPSYRSFHSGGYGQ [CTNNB1], the protein stability index under setting [1] came to 3.76 ± 0.48 and the protein stability index under setting [2] stood at 3.96 ± 0.24. ADDLVLTLSNPQMSLEGTEKASWL [ELF3]: the protein stability index is, setting by setting: under setting [1], 3.62 ± 0.29; under setting [2], 3.85 ± 0.26. Regarding IGREGAKDSYDFFTEIKTITVKH [ALDH8A1], the protein stability index reads like this: under setting [3], 2.35 ± 0.43; under setting [4], 2.42 ± 0.25.

The sequence GFWQLPPPATQNTFGNSTLALGPG [PLAGL1] had a protein stability index under setting [1] of 3.17 ± 0.15 and a protein stability index under setting [2] of 3.29 ± 0.35. SQSWHTESLPVSLGPESWQQIAMD [BCL2L13]: the protein stability index was determined as 3.79 ± 0.24 under setting [1] and 3.93 ± 0.23 under setting [2].

For RLLGTAGTEEKKKLIRDFDEKQQE [VTI1B], the protein stability index by setting is: under setting [1], 5.06 ± 0.15; under setting [2], 5.11 ± 0.33. Turning to HRDIKPDNLLLDAKGHVKLSDFGL [STK38L], the protein stability index under setting [1] was 3.27 ± 0.23 and the protein stability index under setting [2] came to 3.4 ± 0.15. LITFDNKAHSGRIPISLETQAHIQ [MCOLN1] registered a protein stability index under setting [1] of 2.91 ± 0.26 and a protein stability index under setting [2] of 3.04 ± 0.23.

As for LVMPLEEKLTKITRTGPSAWETKK [PCMTD2], the protein stability index was 3.79 ± 0.21 under setting [1] and 3.75 ± 0.23 under setting [2]. On to LAGSESLPVETLGPASRMDPESER [PBXIP1], for which the protein stability index was 5.2 ± 0.18 under setting [1] and 5.21 ± 0.21 under setting [2]. Regarding SLKFKSRVPQTWSKRLYGVYDNEK [PLD5], the protein stability index is, setting by setting: under setting [1], 2.55 ± 0.39; under setting [2], 2.71 ± 0.74.

FNFKFNLTEDMYAQDSIELLTTSG [CNOT7] yielded a protein stability index under setting [1] of 1.825 ± 0.003. With PNINKISMQAVLDYLYTKQLSPNL [RHOBTB1], the protein stability index runs as follows: under setting [1], 2.25 ± 0.68; under setting [2], 2.16 ± 0.31. Regarding KLIQKKLLDKTCDQVMEFSWSALW [ZER1], the protein stability index is, setting by setting: under setting [1], 2.41 ± 0.41; under setting [2], 2.35 ± 0.2. Consider ASYVVFRIIYMLLITIATFQIAAN [SLC19A2], for which the protein stability index reads like this: under setting [1], 3.09 ± 0.94; under setting [2], 3.19 ± 0.18. Regarding TYPAHQNRVSAIIFSLATEWVIST [WDFY1], the protein stability index stood at 3.57 ± 0.89 under setting [1] and 2.92 ± 1.1 under setting [2].

As for EPQGLGYWEAWRHHCQGKDLTEWV [SPACA3], the protein stability index was 3.85 ± 0.2 under setting [1] and 3.8 ± 0.45 under setting [2]. As to LIRLFWTWHDERFLYMLMEYVPGG [PRKX], the protein stability index is 2.59 ± 0.47 under setting [1] and 2.48 ± 0.35 under setting [2].

With EYAGSNTYEEAAAYIQCQFEDLNK [GNAI1], the protein stability index is, setting by setting: under setting [1], 3.95 ± 0.37; under setting [2], 4.12 ± 0.5. For ILSFILAIPEAIGFVMVPFEYRGE [EDNRA], the protein stability index under setting [1] was 3.6 ± 0.94 and the protein stability index under setting [2] came out at 3.15 ± 0.51. Turning to RTHINAVVAKIQAKIPGAKRHAE [RTN1], the protein stability index is, setting by setting: under setting [3], 2.74 ± 0.25; under setting [4], 3.04 ± 0.36.

As for VFQEMLLHKFPYRMVPALPPKRML [SNX8], the protein stability index is, setting by setting: under setting [1], 2.12 ± 0.54; under setting [2], 2.13 ± 0.22. In the same order, the values of VNNNYEHRHTSHLGHAVLPSNARG [SPRY1] are 3.96 ± 0.2 and 4.03 ± 0.21.

Take DQEEIKTLERYMCSRFFIDFPDIL [TENT5C]: the protein stability index worked out at 2.45 ± 0.16 under setting [1] and 2.56 ± 0.33 under setting [2]. Regarding YEEGMYADWWQEPDAKGDEAEAEP [P3H4], the protein stability index amounted to 5.49 ± 0.17 under setting [1] and 5.37 ± 0.22 under setting [2]. As to HQKLEREARICRLLKHPNIVRLHD [CAMK2D], the protein stability index under setting [1] came out at 2.51 ± 0.22 and the protein stability index under setting [2] was 2.9 ± 0.46. For the sequence ERLYVIGGNHFRGTSDYDDVLSCE [KLHL13], the protein stability index turned out to be 3.28 ± 0.19 under setting [1] and 3.35 ± 0.18 under setting [2]. For DQYSYSSLVMGSQTESALSKKLRA [LCOR], the protein stability index by setting is: under setting [1], 3.63 ± 0.12; under setting [2], 3.54 ± 0.27. For the sequence VVFGLLLSYVMSGYRCFVCPVEYN [CDS2], the protein stability index under setting [1] was found to be 3.55 ± 0.062 and the protein stability index under setting [2] came out at 3.41 ± 0.31. CGERLSLGLSRAQPVQSKPQKASA [PDLIM7] gave a protein stability index under setting [1] of 3.85 ± 0.38 and a protein stability index under setting [2] of 4.06 ± 0.33. On to SGSGFGSVSWWGLSPALDLQAESP [DNAAF3], for which the protein stability index under setting [1] came out at 2.69 ± 0.56 and the protein stability index under setting [2] was determined as 2.43 ± 0.097. Take GSQDGHFVLSCSYDGLDCQARQFR [SCNN1D]: the protein stability index by setting is: under setting [1], 2.52 ± 0.12; under setting [2], 2.71 ± 0.29. In the same order, the values of IFAQGAPRSSLAESFFVDYEENEG [ADAMTSL2] are 4.05 ± 0.067 and 4.98 ± 0.26. Taken in the same sequence, the figures for ALPPLRTRSKSDPVLHPSEERAAP [FAM189A2] were 5.64 ± 0.39 and 5.58 ± 0.2. Take YMVIEEGGMNHSAFPQTPFKTGNS [KCNA3]: the protein stability index is, setting by setting: under setting [1], 3.27 ± 0.17; under setting [2], 3.22 ± 0.61. As for QRPADVPEPGRAGYPAPRDEGVLR [HAGHL], the protein stability index is 4.85 ± 0.32 under setting [1] and 4.84 ± 0.15 under setting [2]. Turning to FTSSPSPFSSSSPENVEDSGLDSP [FCHO1], the protein stability index is, setting by setting: under setting [1], 2.86 ± 0.94; under setting [2], 3.81 ± 0.87.

For QGAKERAHQQKKHSGFEDELSEVL [CHGA], the protein stability index under setting [1] turned out to be 5.23 ± 0.25 and the protein stability index under setting [2] stood at 5.27 ± 0.23. As to SDPDCSMRPTLIDLLPTFRHTLQK [FBXO39], the protein stability index by setting is: under setting [1], 3.33 ± 0.27; under setting [2], 3.45 ± 0.28. Sequence VKYVGNMHGNEALGRELMLQLSEF [CPN1] came in with a protein stability index under setting [1] of 2.24 ± 0.2 and a protein stability index under setting [2] of 2.25 ± 0.39.
